The values below come from article PMC8217500, “Sequence signatures of two public antibody clonotypes that bind SARS-CoV-2 receptor binding domain” (Nature Communications, 2021).

What all share (conditions): both partners purified
For assay [1], the target named is T1, Fc-tagged SARS-CoV-2 receptor-binding domain (RBD), wild type (SARS-CoV-2, Wuhan-Hu-1 (QHD43416.1), UniProt P0DTC2).
T1 construct: also called SARS-CoV-2 RBD; WT RBD; not shown: Fc, C-terminal, kept
Briefly: BLI; Fc-tagged RBD (20 ug/ml) loaded on anti-hIgG Fc Capture (AHC) biosensors, Fab in solution at four to five concentrations; Octet Red96e, room temperature, 1x kinetics buffer (1x PBS pH 7.4, 0.01% w/v BSA, 0.002% v/v Tween 20); 1:1 binding model. Background: Biolayer interferometry detects binding as a change in optical thickness at a sensor tip.

Assay [2] deals with T2, Fc-tagged SARS-CoV-2 spike receptor-binding domain (RBD) (SARS-CoV-2, Wuhan-Hu-1 (QHD43416.1), UniProt P0DTC2).
T2 construct: also called SARS-CoV-2 RBD; Fc-tagged RBD; source: Expi293F, transiently transfected, purified (KanCapA protein A resin); not shown: Fc (after an SSSSG linker), C-terminal, kept
The assay can be described thus: BLI; Fc-tagged RBD (20 ug/ml) loaded on anti-hIgG Fc Capture (AHC) biosensors, Fab in solution; room temperature; 1x PBS pH 7.4, 0.01% BSA, 0.002% Tween 20; 1:1 binding model.

In assay [3] the target is T3, Fc-tagged SARS-CoV-2 RBD (SARS-CoV-2, Wuhan-Hu-1 (QHD43416.1), UniProt P0DTC2).
T3 construct: also called SARS-CoV-2 S RBD-Fc; not shown: Fc, C-terminal, kept
The assay can be described thus: BLI; Octet Red96e, room temperature; Fc-tagged RBD (20 μg/ml) loaded on anti-hIgG Fc Capture (AHC) biosensors, Fab in solution; 1× kinetics buffer (1× PBS pH 7.4, 0.01% BSA, 0.002% Tween 20); 60 s association, 60 s dissociation; 1:1 binding model.

B1: COVA2-20 Fab, wild type (Fab, V domains shown)
VH: EVQLVESGGGLIQPGGSLRLSCAASGFTVSSNYMSWVRQAPGKGLEWVSVIYSGGSTYYADSVKGRFTISRDNSKNTLYLQMNSLRAEDTAVYYCASPLLLTPPDYYYYMDVWGKGTMVTVSS
VL: DVVMTQSPSSLSVSVGDRVTITCRASQGIRNDLGWYQQKPGKAPKRLIYAASSLQSGVPSRFSGSGSGTEFTLTISSLQPEDFATYYCLQHNSYLWTFGQGTKLEIK
By Kd is commonly meant a measure of binding affinity in units of concentration. A higher Kd goes with lower affinity. As to B1, the affinity in assay [1], expressed as Kd, was 304 ± 20 nM.

B2: COVA2-20 Fab, Y58 (wild type) (Fab, V domains shown)
VH: B1 VH
VL: B1 VL
In assay [2], B2 had a Kd of 304 nM.

B3: COV107-23 Fab (Fab, V domains shown)
VH: EVQLVESGGGLIQPGGSLRLSCAASGFTVSSNYMSWVRQAPGKGLEWVSVIYSGGSTFYADSVKGRFTISRDNSKNTLYLQMNSLRAEDTAVYYCARDLGTGLFDYWGQGTLVTVSS
VL: DIQLTQSPSFLSASVGDRVTITCRASQGISSYLAWYQQKPGKAPKLLIYAASTLQSGVPSRFSGSGSGTEFTLTISSLQPEDFATYYCQQLDSYPPGTFGPGTKVDIK
notes: also called wild-type (WT) COV107-23; source: Expi293F, transiently co-transfected, purified (CaptureSelect CH1-XL column)
On to B3, for which the Kd in assay [3] turned out to be 1 nM.
